This data set in a line: protein stability index of a GFP-peptide fusion (GPS, HEK-293T) (PSI 1-6); higher = more stable. Particulars: c terminus: a fixed tail appended.

± gives the standard deviation.
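Also: 24-mer peptide tiles fused after GFP, lentivirally expressed, FACS-sorted into six equal bins by GFP/DsRed ratio, decoded by Illumina sequencing, PSI is the read-weighted mean bin number.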

On to EFYHDEFKRWIYLNDQNLCIPASS [GAN], for which the protein stability index by setting is: (treatment: DMSO) 2.75 ± 0.28; (treatment: MLN4924 1 uM, 8 h) 2.74 ± 0.13.

As for EGCKSFFKRSVRRNLSYTCRANRN [NR2F2], the protein stability index reads like this: (treatment: DMSO) 3.34 ± 0.36; (treatment: MLN4924 1 uM, 8 h) 3.52 ± 0.31. The corresponding values for EGHQAWIVGIVEKGNRTARIIDKP [SEPHS2] are 1.95 ± 0.24 and 2.42 ± 0.43. For EHGDQLLSIRCQHQEQVEDLTASH [MTUS2], the protein stability index by setting is: (treatment: DMSO) 5.25 ± 0.23; (treatment: MLN4924 1 uM, 8 h) 5.09 ± 0.22. Regarding EHGYENMNHFTVNLNREEKIIREI [TRIM55], the protein stability index (treatment: DMSO) turned out to be 3.64 ± 0.19 and the protein stability index (treatment: MLN4924 1 uM, 8 h) was 3.85 ± 0.27. The like results for EIATKPHEKIGFPAARRCHSCVQI [KLHDC10] were, in that order, 2.43 ± 0.29 and 2.59 ± 0.2. The like results for EKEMKAQEQRLGIRISMSHEEEPL [GMPPB] were, in that order, 5.23 ± 0.25 and 5.24 ± 0.086. In turn, EKEMQKMNPYKIDIGAVYSHRPNQ [PRIM1] registered a protein stability index (treatment: DMSO) of 3.64 ± 0.43 and a protein stability index (treatment: MLN4924 1 uM, 8 h) of 3.44 ± 0.32.

In the case of EKFSDEGDSDSALDSVSPCPSSPK [DLC1], the protein stability index runs as follows: (treatment: DMSO) 5.41 ± 0.51; (treatment: MLN4924 1 uM, 8 h) 5.58 ± 0.13. The corresponding values for ELADHIERLKANDNLKFSQEYESI [PTPRD] are 3.48 ± 0.25 and 3.74 ± 0.28. The corresponding values for ELAEATWCGISTDMWRSENQNRAY [ZBED1] are 2.84 ± 0.33 and 2.8 ± 0.44. As for ELAPDFVGDILWEHLEILQKEDVK [ETS1], the protein stability index by setting is: (treatment: DMSO) 3.95 ± 0.48; (treatment: MLN4924 1 uM, 8 h) 4.17 ± 0.29. The corresponding values for ELEDKDGLQSAQPTEGQGSLLTNW [MYBL2] are 5.03 ± 0.36 and 5.35 ± 0.31. ELERIGPQHQAGSDSLLTGMAFFK [CNOT7] yielded a protein stability index (treatment: DMSO) of 3.25 ± 0.34 and a protein stability index (treatment: MLN4924 1 uM, 8 h) of 3.62 ± 0.11. The like results for ELLATGDKGGRVVIFQREQESKNQ [PPP2R2B] were, in that order, 3.79 ± 0.82 and 3.91 ± 0.34. ELLTCHSAEYVGHLRATEKMKTRE [HDAC6] came in with a protein stability index (treatment: DMSO) of 3.82 ± 0.1. For ELRFLLVYLHGDDHQDSDEFCRNT [FAF2], the protein stability index reads like this: (treatment: DMSO) 2.29 ± 0.23; (treatment: MLN4924 1 uM, 8 h) 2.43 ± 0.32. The like results for ELSEAAEAQHGPHSAVARISRAQY [STX11] were, in that order, 4.53 ± 0.24 and 4.63 ± 0.15. With ENCLDAKSTSIQVIVKEGGLKLIQ [MLH1], the protein stability index turned out to be 2.7 ± 0.37 (treatment: DMSO) and 2.94 ± 0.22 (treatment: MLN4924 1 uM, 8 h). The like results for ENVLHFKAQGHGAKGDNVYEFHLE [HACD3] were, in that order, 3.57 ± 0.3 and 3.79 ± 0.17. The corresponding values for EPASAREAPASVVPFVRVKREREV [USP39] are 4.93 ± 0.3 and 4.87 ± 0.58. The like results for EPHSLLHLSRLCVRHNLGDTRLGQ [SPSB2] were, in that order, 3.44 ± 0.18 and 3.35 ± 0.19. With EPPCEGNTFFCHSNMCINNTLVCN [NETO1], the protein stability index runs as follows: (treatment: DMSO) 2.9 ± 0.24; (treatment: MLN4924 1 uM, 8 h) 2.85 ± 0.35. The corresponding values for EQDRIPEVHVPPSSAVSGVKEWFG [MIA2] are 4.35 ± 0.099 and 4.46 ± 0.35. The like results for EQSSARQKASLLIQQALTMFPGVL [TCF25] were, in that order, 2.51 ± 0.3 and 2.54 ± 0.3. The like results for ERDALEAVFRFWAGGEKGPQAFPM [DNAAF3] were, in that order, 2.5 ± 0.24 and 2.58 ± 0.28. As to ERLLAVAERYGLSGSDVLDNVAYA [RAD51], the protein stability index is, setting by setting: (treatment: DMSO) 2.8 ± 0.23; (treatment: MLN4924 1 uM, 8 h) 2.95 ± 0.094.

With ERNEVRNVFKELQIMQGLEHPFLV [STK32A], the protein stability index is 2.71 ± 0.32 (treatment: DMSO) and 2.72 ± 0.41 (treatment: MLN4924 1 uM, 8 h). Consider ERSQEESPPGSTKRRKSMSGASPK [CDC25A], for which the protein stability index by setting is: (treatment: DMSO) 5.48 ± 0.19; (treatment: MLN4924 1 uM, 8 h) 5.46 ± 0.12. The corresponding values for ERSRDVVDEVSVSLRLWDTFGDHH [RHOBTB1] are 3.27 ± 0.2 and 3.32 ± 0.31. Turning to ERVYSLQHLDPQGAQELLEFTIRD [INTS4], the protein stability index by setting is: (treatment: DMSO) 3.74 ± 0.42; (treatment: MLN4924 1 uM, 8 h) 3.69 ± 0.31. As for ESAKDWETSPLPGMLAPAAGPAFD [PPFIA4], the protein stability index was 4.62 ± 0.076 (treatment: DMSO) and 4.61 ± 0.33 (treatment: MLN4924 1 uM, 8 h). The like results for ESLTEDEATQFLKQILDGVHYLHS [DAPK3] were, in that order, 3.06 ± 0.28 and 3.29 ± 0.28.

In the case of ESPDEMELDELLKEISRKRRSIRY [PTPRD], the protein stability index by setting is: (treatment: DMSO) 3.05 ± 0.24; (treatment: MLN4924 1 uM, 8 h) 3.4 ± 0.069. ESSQKYKEGKYIIELNHMIKDNGW [YPEL3]: the protein stability index is, setting by setting: (treatment: DMSO) 3.04 ± 0.21; (treatment: MLN4924 1 uM, 8 h) 3.08 ± 0.27. The like results for ETLDYGKNYNYGMHYCAVPPRGPL [NEUROD6] were, in that order, 2.65 ± 0.31 and 2.68 ± 0.14. The like results for ETYKMEFMYSGVENKQVVIIHHMR [INTS4] were, in that order, 2.72 ± 0.56 and 2.46 ± 0.47. For EVESLTAARNACRAGTEPSDAIRV [TRIP13], the protein stability index is, setting by setting: (treatment: DMSO) 4.33 ± 0.15; (treatment: MLN4924 1 uM, 8 h) 4.51 ± 0.27. The like results for EVETEGPESADTGDKSESPDEANV [TOR1AIP2] were, in that order, 5.32 ± 0.41 and 5.58 ± 0.3. The corresponding values for EVILLVVMAYDRYMAICKPLHELI [OR4A15] are 3.26 ± 0.43 and 2.97 ± 0.44. With EVIYPQHSKLTDREKTNICYLSFP [DENND6A], the protein stability index is, setting by setting: (treatment: DMSO) 2.2 ± 0.43; (treatment: MLN4924 1 uM, 8 h) 2.54 ± 0.38. The corresponding values for EVKLLLSSETPIEGKNMSFVNDLT [APMAP] are 3.35 ± 0.23 and 3.56 ± 0.13. The like results for EVMERDAKDYADSIHAIFVETSAK [RAB22A] were, in that order, 4.15 ± 0.28 and 4.13 ± 0.24. As to EYLSLVKGGQDVKKKVHLSEKIHP [PRIM1], the protein stability index (treatment: DMSO) worked out at 2.65 ± 0.3 and the protein stability index (treatment: MLN4924 1 uM, 8 h) amounted to 2.79 ± 0.39. Consider FANGHTYHINSISVNSDCETYMSA [PPP2R2C], for which the protein stability index is 2.68 ± 0.69 (treatment: DMSO) and 2.63 ± 0.23 (treatment: MLN4924 1 uM, 8 h). In the case of FEFRPELVNDDDEEADDTRYTQGT [ZC3H15], the protein stability index amounted to 5.44 ± 0.25 (treatment: DMSO) and 5.28 ± 0.2 (treatment: MLN4924 1 uM, 8 h).

FEGEGDYEEGMYADWWQEPDAKGD [P3H4]: the protein stability index reads like this: (treatment: DMSO) 5.31 ± 0.12; (treatment: MLN4924 1 uM, 8 h) 5.35 ± 0.16. Turning to FFPMGDEGASSQIGRAAGTGFTVN [HDAC6], the protein stability index is, setting by setting: (treatment: DMSO) 3.46 ± 0.17; (treatment: MLN4924 1 uM, 8 h) 3.69 ± 0.15. The corresponding values for FGAAGVNRLSIGLQSLDDTELRLL [RSAD1] are 2.8 ± 0.094 and 2.76 ± 0.54. The like results for FGGSFMAPSPSPVTPAQNNLLQPN [SNAP91] were, in that order, 2.64 ± 0.59 and 3.09 ± 0.4. The like results for FHIFRTLEVNRLMGKLLQQPNTYA [PKD2L1] were, in that order, 2.46 ± 0.68 and 2.5 ± 0.26. For the sequence FHKQQWFNCIRAAIAPFQSAGSPP [NET1], the protein stability index reads like this: (treatment: DMSO) 2.69 ± 0.58; (treatment: MLN4924 1 uM, 8 h) 2.5 ± 0.3. The like results for FHNCLIQLYCEKVQGLMKEYLLSF [VPS39] were, in that order, 2.96 ± 0.26 and 3.2 ± 0.7. FIGETLLSMNWAIVADILLYVVIP [SPNS1]: the protein stability index (treatment: DMSO) worked out at 3.29 ± 0.34 and the protein stability index (treatment: MLN4924 1 uM, 8 h) worked out at 3.45 ± 0.25.

For the sequence FIWFVCSLVYYGLTLSAGDLGGSI [SLC22A15], the protein stability index reads like this: (treatment: DMSO) 3.46 ± 0.52; (treatment: MLN4924 1 uM, 8 h) 3 ± 0.78.

Consider FIYSTWKGRTIYLEDIYVMPEYRG [SAT2], for which the protein stability index runs as follows: (treatment: DMSO) 3.21 ± 0.44; (treatment: MLN4924 1 uM, 8 h) 2.8 ± 0.52. The corresponding values for FMEFYQDVKDWWLFGFYFCMPLVC [EDNRA] are 3.155 ± 0.026 and 3.2 ± 0.56. The like results for FMHSRNLYILGNFMQLKCFSSQKL [PNLIPRP1] were, in that order, 3.11 ± 1.1 and 2.53 ± 0.74. The like results for FNSILPGVLILFLTFFAFLHCWLN [SOAT1] were, in that order, 2.22 ± 0.63 and 2.29 ± 0.36. For FNYLHTNCFEITLELSCDKFPPEE [CPN1], the protein stability index is 2.5 ± 0.51 (treatment: DMSO) and 2.09 ± 0.42 (treatment: MLN4924 1 uM, 8 h). Regarding FNYSVGFKDLNESLNALEDQDLDA [APBB1IP], the protein stability index stood at 4.13 ± 0.33 (treatment: DMSO) and 3.98 ± 0.68 (treatment: MLN4924 1 uM, 8 h). The like results for FPGPQEHTQVLPDVRLLPRRLPLA [DYRK1B] were, in that order, 3.37 ± 0.083 and 3.58 ± 0.2. The like results for FRDAAEEGGTAVTGGQTVVNPWII [SEPHS2] were, in that order, 3.45 ± 0.2 and 3.54 ± 0.26. As to FRGFPPEDLMPLAAAYGHALEQYE [P3H4], the protein stability index was determined as 2.8 ± 0.36 (treatment: DMSO) and 3.08 ± 0.16 (treatment: MLN4924 1 uM, 8 h). Take FRGQILGFWEEERPFWEEEKTFWK [CCDC70]: the protein stability index is 2.25 ± 0.33 (treatment: DMSO) and 2.28 ± 0.31 (treatment: MLN4924 1 uM, 8 h). The corresponding values for FRPYFTIHDSEFKEYTTRTQAPPS [DENND6A] are 2.55 ± 0.23 and 2.71 ± 0.27. Consider FSHDGLHVASLADDKMVRFWRIDE [WSB1], for which the protein stability index reads like this: (treatment: DMSO) 2.44 ± 0.48; (treatment: MLN4924 1 uM, 8 h) 2.72 ± 0.52. The like results for FSQKHFPEVVQHEEFILLSQGEVE [KLHL12] were, in that order, 3.44 ± 0.81 and 3.45 ± 0.33. The corresponding values for FTLGTNAIIISTIVLDRALHIPMY [OR10K2] are 2.89 ± 0.82 and 2.87 ± 0.78.

With FVAFALCMFCLYSFMPLVIKVTSA [SLC35F2], the protein stability index is 3.2 ± 0.44 (treatment: DMSO) and 3.32 ± 0.68 (treatment: MLN4924 1 uM, 8 h). The corresponding values for FYKREMFDPAEKYKMDHRRRGIAL [CASP6] are 2.84 ± 0.2 and 2.78 ± 0.26.

For FYQAVRDLLPVWLLEDMRASEAFH [ANKRD9], the protein stability index runs as follows: (treatment: DMSO) 2.85 ± 0.47; (treatment: MLN4924 1 uM, 8 h) 2.59 ± 0.57. The like results for FYQSPYDSEQVPQALRRLRPRTRK [NCF4] were, in that order, 4.63 ± 0.37 and 4.68 ± 0.3.

Values taken from the supplement of paper PMC10567573.
